Test results taken from paper PMC7496328.

B1: unnamed (parent)
chain: MFGLGHNSKEISMSHIGTKFILAEKFTFDPLSNTLIDKEDSEEIIRLGSNESRILWLLAQRPNEVISRNDLHDFVWREQGFEVDDSSLTQAISTLRKMLKDSTKSPQYVKTVPKRGYQLIARVETVEEEMARESEAAHDISQPESVNEYAESSSVPSSATVVNTPQPANVVTNKSAPNLGNRLLILIAVLLPLAVLLLTNPSQTSFKPLTVVDGVAVNMPNNHPDLSNWLPSIELCVKKYNEKHTGGLKPIEVIATGGQNNQLTLNYIHSPEVSGENITLRIVANPNDAIKVCE

Variants of: B1
Details: with partner chain of the complex shown; read off a plot

Going from MFGLGHNSKEISMSHIGTKFILAEKFTFDPLSNTLIDKEDSEEIIRLGSNESRILWLLAQRPNEVISRNDLHDFVRREQGFEVDDSSLTQAISTLRKMLKDSTKSPQYVKTVPKRGYQLIARVETVEEEMARESEAAHDISQPESVNEYAESSSVPSSATVVNTPQPANVVTNKSAPNLGNRLLILIAVLLPLAVLLLTNPSQTSFKPLTVVDGVAVNMPNNHPDLSNWLPSIELCVKKYNEKHTGGLKPIEVIATGGQNNQLTLNYIHSPEVSGENITLRIVANPNDAIKVSE [chain 1 C293S W76R] to MFGLGHNSKEISMSHIGTKFILAEKFTFDPLSNTLIDKEDSEEIIRLGSNESRILWLLAQRPNEVISRNDLHDFVWREQGFEVDDSSLTQAISTLRKMLKDSTKSPQYVKTVPKRGYQLIARVETVEEEMARESEAAHDISQPESVNEYAESSSVPSSATVVNTPQPANVVTNKSAPNLGNRLLILIAVLLPLAVLLLTNPSQTSFKPLTVVDGVAVNMPNNHPDLSNWLPSIELCVKKYNEKHTGGLKPIEVIATGGQNNQLTLNYIHSPEVSGENITLRIVANPNDAIKVSE [chain 1 C293S], the response rises from 5% to 45%.
